Results taken from US20130225503A1, “TEX14 PEPTIDES AS NOVEL ANTITUMOR AGENTS” (Baylor Licnensing Group, priority 2009, published 2013).
“Also recorded” adds a separate entry of the source.

Legend:
Type in all cases: cell-based
[1] = target: T1, hinge region of human CEP55 (Homo sapiens, UniProt Q53EZ4); assay: Modified mammalian two-hybrid assay in HEK293T cells, TEX14 fragment binding to CEP55; details: transfected HEK293T cells; FIG. 5C, 5E, 5F, FIG. 7
T1 construct: expressed in transfected cells; host or cells: HEK293T
T1 sequence (Q53EZ4 157-236 limits assumed): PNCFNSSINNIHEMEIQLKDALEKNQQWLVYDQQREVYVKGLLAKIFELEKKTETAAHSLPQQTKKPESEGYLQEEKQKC
Excerpt: (§1) A modified form of the CheckMate/Flexi vector mammalian two-hybrid system (Promega) was used to study the interactions of proteins in mammalian cells. A pGL4Cherry (mCherry/GAL4UAS/Hygro) vector was engineered from the pGL4.31 (luc2P/GAL4UAS/Hygro) vector by replacing the Luc2P firefly luciferase reporter sequence with the mCherry sequence. The pACT vector expresses a protein of interest, “X,” fused to a transcriptional activation domain (VP16-AD) and the pBIND vector expresses the other protein of interest, “Y,” fused to a DNA-binding domain (GAL4-BD) and Renilla luciferase by separate promoters. […]
(§2) Sequences encoding the truncated TEX14, CEP55, ALIX, or TSG101 fragments were cloned into the multiple cloning regions of the pACT and pBIND vectors. Some exemplary constructs used are summarized in FIGS. 6A and B. pACT (protein X), pBIND (protein Y), and pGL4Cherry (mCherry/GAL4UAS/Hygro) were transiently cotransfected into HEK293T cells using Fugene 6/HD transfection reagent, and the cells were examined 44 h later for red fluorescence by using an Axiovert 40 CFL microscope (Carl Zeiss). […] The cells were lysed by using Renilla luciferase assay reagent (Promega), and red fluorescence and Renilla luciferase were measured by using a Polar Star Omega microplate reader (BMG LabTech). […]

[2] = target: T2, ALIX-CEP interaction (Homo sapiens, UniProt Q53EZ4); assay: Competition assay using the mammalian two-hybrid system, ALIX-CEP55 interaction; details: pcDNA3 overexpression in HEK293T cells; FIG. 6A, FIG. 7 left
T2 construct: expressed in transfected cells; host or cells: HEK293T
T2 sequence (Q53EZ4 157-236 limits assumed): T1 sequence (Q53EZ4 157-236 limits assumed)
Excerpt: as §1, §2

[3] = target: T3, TSG-CEP interaction (Homo sapiens, UniProt Q53EZ4); assay: Competition assay using the mammalian two-hybrid system, TSG101-CEP55 interaction; details: pcDNA3 overexpression in HEK293T cells; FIG. 6B, FIG. 7 center
T3 construct: expressed in transfected cells; host or cells: HEK293T
T3 sequence (Q53EZ4 157-236 limits assumed): T1 sequence (Q53EZ4 157-236 limits assumed)
Excerpt: as §1, §2

[4] = tested on: full-length ALIX localization to the midbody; assay: Cotransfection with YFP full-length ALIX into HeLa cells, ALIX midbody localization and interconnected cells
Excerpt: The mouse TEX14 open reading frame (ORF) sequence was ligated into the BamHI and SalI sites of the pCMV-tag2 vector (Stratagene), which contains an N-terminal FLAG tag sequence. The mouse CEP55 ORF was cloned from testis cDNA and subcloned into the EcoRI and SalI sites of the pcDNA3 (Invitrogen) vector containing an N-terminal MYC tag sequence. The truncated and mutant TEX14 (TX, AAAX3A) and the full-length ALIX sequences were ligated into the BamHI and NotI or the NotI and XbaI sites, respectively, of the pcDNA3 vectors, while mCherry or YFP sequences were subcloned into the KpnI and BamHI sites. Purified plasmid DNA was obtained by using a QIAprep spin miniprep kit (Qiagen), and all constructs were sequenced for integrity.
HEK293T or HeLa cells were maintained in Dulbecco's modified Eagle medium (Invitrogen) supplemented with 10% fetal calf serum (SAFC Biosciences), 1% L-glutamine (Invitrogen), and penicillinstreptomycin (Invitrogen) and grown on poly-D-lysine (Sigma)-coated coverslips in culture plates at 37 C° in a humidified 5% CO2 atmosphere. For immunoprecipitation and immunoblot experiments, cells were seeded at 50 to 80% confluence in […] (Corning) and transiently transfected using Fugene 6/HD transfection reagent (Roche) according to the manufacturer's instructions. […]

Substance: TX: GPPX3Y region of human TEX14, the 60 amino acids from 754 to 813 (LRNIEQILDEVEMKQKEQEERMSLWATSREFTNAYKLPLAVGPPSLNYIPPVLQLSGGQK; UniProt Q8IWB6 754-813, looked up, fragment)
- binding to CEP55 hinge region (mCherry/Renilla luciferase or mCherry/YFP ratio) [1]: strongly binds; also recorded: typically stronger than the ALIX-CEP or TSG-CEP interactions
- effect of overexpression on ALIX-CEP interaction [2]: suppressed
- effect of overexpression on TSG-CEP interaction [3]: suppressed
- full-length ALIX localization to the midbody ([4]; HeLa cells cotransfected with pcDNA-mCherry-truncated TEX14 and pcDNA-YFP full-length ALIX): inhibits full-length ALIX localization to the midbody
- interconnecting cells (intercellular bridges) in transfected cells ([4]; HeLa cells, FIG. 6G left): several interconnecting cells were visualized
